In publication PMC8956632 one finds response data, which are given here for seven variants.

The chains are these.
B1: 5-HT1AR-EGFP [human] / OX1R-Rluc [human] (parent)
chain 1: MDVLSPGQGNNTTSPPAPFETGGNTTGISDVTVSYQVITSLLLGTLIFCAVLGNACVVAAIALERSLQNVANYLIGSLAVTDLMVSVLVLPMAALYQVLNKWTLGQVTCDLFIALDVLCCTSSILHLCAIALDRYWAITDPIDYVNKRTPRRAAALISLTWLIGFLISIPPMLGWRTPEDRSDPDACTISKDHGYTIYSTFGAFYIPLLLMLVLYGRIFRAARFRIRKTVKKVEKTGADTRHGASPAPQPKKSVNGESGSRNWRLGVESKAGGALCANGAVRQGDDGAALEVIEVHRVGNSKEHLPLPSEAGPTPCAPASFERKNERNAEAKRKMALARERKTVKTLGIIMGTFILCWLPFFIVALVLPFCESSCHMPTLLGAIINWLGYSNSLLNPVIYAYFNKDFQNAFKKIIKCKFCRQ
chain 2: MEPSATPGAQMGVPPGSREPSPVPPDYEDEFLRYLWRDYLYPKQYEWVLIAAYVAVFVVALVGNTLVCLAVWRNHHMRTVTNYFIVNLSLADVLVTAICLPASLLVDITESWLFGHALCKVIPYLQAVSVSVAVLTLSFIALDRWYAICHPLLFKSTARRARGSILGIWAVSLAIMVPQAAVMECSSVLPELANRTRLFSVCDERWADDLYPKIYHSCFFIVTYLAPLGLMAMAYFQIFRKLWGRQIPGTTSALVRNWKRPSDQLGDLEQGLSGEPQPRARAFLAEVKQMRARRKTAKMLMVVLLVFALCYLPISVLNVLKRVFGMFRQASDREAVYACFTFSHWLVYANSAANPIIYNFLSGKFREQFKAAFSCCLPGLGPCGSLKAPSPRSSASHKSLSLQSRCSISKISEHVVLTSVTTVLP
B2: OX1R-EGFP [human] / 5-HT1AR-Rluc [human] (parent)
chain 1: B1 chain 2
chain 2: B1 chain 1

The variants in the first assay derive from B1. The assay can be described thus: BRET. The conditions noted are these: with OX1R-Rluc [human]; HEK293 cells, basal (no agonist); parent: 0.26; read off a plot.
For chain 1 MDVLSPGQGNNTTSPPAPFETGGNTTGISDVTVSYQVITSLLLGTLIFCAVLGNACVVAAIALERSLQNVANYLIGSLAVTDLMVSVLVLPMAALYQVLNKWTLGQVTCDLFIALDVLCCTSSILHLCAIALDRYWAITDPIDYVNKRTPRRAAALISLTWLIGFLISIPPMLGWRTPEDRSDPDACTISKDHGYTIASTFGAFYIPLLLMLVLYGRIFRAARFRIRKTVKKVEKTGADTRHGASPAPQPKKSVNGESGSRNWRLGVESKAGGALCANGAVRQGDDGAALEVIEVHRVGNSKEHLPLPSEAGPTPCAPASFERKNERNAEAKRKMALARERKTVKTLGIIMGTFILCWLPFFIVALVLPFCESSCHMPTLLGAIINWLGYSNSLLNPVIYAYFNKDFQNAFKKIIKCKFCRQ [chain 1 Y198A], the response came to 0.23.

For the variant chain 1 MDVLSPGQGNNTTSPPAPFETGGNTTGISDVTVSYQVITSLLLGTLIFCAVLGNACVVAAIALERSLQNVANYLIGSLAVTDLMVSVLVLPMAALYQVLNKWTLGQVTCDLFIALDVLCCTSSILHLCAIALDRYWAITDPIDYVNKRTPARAAALISLTWLIGFLISIPPMLGWRTPEDRSDPDACTISKDHGYTIYSTFGAFYIPLLLMLVLYGRIFRAARFRIRKTVKKVEKTGADTRHGASPAPQPKKSVNGESGSRNWRLGVESKAGGALCANGAVRQGDDGAALEVIEVHRVGNSKEHLPLPSEAGPTPCAPASFERKNERNAEAKRKMALARERKTVKTLGIIMGTFILCWLPFFIVALVLPFCESSCHMPTLLGAIINWLGYSNSLLNPVIYAYFNKDFQNAFKKIIKCKFCRQ [chain 1 R151A], the response is 0.16.

As to chain 1 MDVLSPGQGNNTTSPPAPFETGGNTTGISDVTVSYQVITSLLLGTLIFCAVLGNACVVAAIALERSLQNVANYLIGSLAVTDLMVSVLVLPMAALYQVLNKWTLGQVTCDLFIALDVLCCTSSILHLCAIALDRYWAITDPIDYVNKRTPRRAAALISLTWLIGFLISIPPMLGARTPEDRSDPDACTISKDHGYTIYSTFGAFYIPLLLMLVLYGRIFRAARFRIRKTVKKVEKTGADTRHGASPAPQPKKSVNGESGSRNWRLGVESKAGGALCANGAVRQGDDGAALEVIEVHRVGNSKEHLPLPSEAGPTPCAPASFERKNERNAEAKRKMALARERKTVKTLGIIMGTFILCWLPFFIVALVLPFCESSCHMPTLLGAIINWLGYSNSLLNPVIYAYFNKDFQNAFKKIIKCKFCRQ [chain 1 W175A], the response is 0.26.

The variants in the next assay derive from B2. The assay can be described thus: BRET. The conditions noted are these: with 5-HT1AR-Rluc [human]; HEK293 cells, basal (no agonist); parent: 0.27; read off a plot.
For chain 1 MEPSATPGAQMGVPPGSREPSPVPPDYEDEFLRYLWRDYLYPKQYEWVLIAAYVAVFVVALVGNTLVCLAVWRNHHMRTVTNYFIVNLSLADVLVTAICLPASLLVDITESWLFGHALCKVIPYLQAVSVSVAVLTLSFIALDRWYAICHPLLFKSTARRARGSILGIWAVSLAIMVPQAAVMECSSVLPELANRTRLFSVCDERWADDLYPKIYHSCFFIVTYLAPLGAMAMAYFQIFRKLWGRQIPGTTSALVRNWKRPSDQLGDLEQGLSGEPQPRARAFLAEVKQMRARRKTAKMLMVVLLVFALCYLPISVLNVLKRVFGMFRQASDREAVYACFTFSHWLVYANSAANPIIYNFLSGKFREQFKAAFSCCLPGLGPCGSLKAPSPRSSASHKSLSLQSRCSISKISEHVVLTSVTTVLP [chain 1 L230A], the response was determined as 0.21.

With chain 1 MEPSATPGAQMGVPPGSREPSPVPPDYEDEFLRYLWRDYLYPKQYEWVLIAAYVAVFVVALVGNTLVCLAVWRNHHMRTVTNYFIVNLSLADVLVTAICLPASLLVDITESWLFGHALCKVIPYLQAVSVSVAVLTLSFIALDRWYAICHPLLFKSTARRARGSILGIWAVSLAIMVPQAAVMECSSVLPELANRTRLFSVCDERWADDLYPKIYHSCFFIVTYAAPLGLMAMAYFQIFRKLWGRQIPGTTSALVRNWKRPSDQLGDLEQGLSGEPQPRARAFLAEVKQMRARRKTAKMLMVVLLVFALCYLPISVLNVLKRVFGMFRQASDREAVYACFTFSHWLVYANSAANPIIYNFLSGKFREQFKAAFSCCLPGLGPCGSLKAPSPRSSASHKSLSLQSRCSISKISEHVVLTSVTTVLP [chain 1 L225A], the response is 0.23.

chain 1 MEPSATPGAQMGVPPGSREPSPVPPDYEDEFLRYLWRDYLYPKQYEWVLIAAYVAVFVVALVGNTLVCLAVWRNHHMRTVTNYFIVNLSLADVLVTAICLPASLLVDITESWLFGHALCKVIPYLQAVSVSVAVLTLSFIALDRWYAICHPLLFKSTARRARGSILGIWAVSLAIAVPQAAVMECSSVLPELANRTRLFSVCDERWADDLYPKIYHSCFFIVTYLAPLGLMAMAYFQIFRKLWGRQIPGTTSALVRNWKRPSDQLGDLEQGLSGEPQPRARAFLAEVKQMRARRKTAKMLMVVLLVFALCYLPISVLNVLKRVFGMFRQASDREAVYACFTFSHWLVYANSAANPIIYNFLSGKFREQFKAAFSCCLPGLGPCGSLKAPSPRSSASHKSLSLQSRCSISKISEHVVLTSVTTVLP [chain 1 M176A]: the response was 0.15.

With chain 1 MEPSATPGAQMGVPPGSREPSPVPPDYEDEFLRYLWRDYLYPKQYEWVLIAAYVAVFVVALVGNTLVCLAVWRNHHMRTVTNYFIVNLSLADVLVTAICLPASLLVDITESWLFGHALCKVIPYLQAVSVSVAVLTLSFIALDRWYAICHPLLFKSTARAARGSILGIWAVSLAIMVPQAAVMECSSVLPELANRTRLFSVCDERWADDLYPKIYHSCFFIVTYLAPLGLMAMAYFQIFRKLWGRQIPGTTSALVRNWKRPSDQLGDLEQGLSGEPQPRARAFLAEVKQMRARRKTAKMLMVVLLVFALCYLPISVLNVLKRVFGMFRQASDREAVYACFTFSHWLVYANSAANPIIYNFLSGKFREQFKAAFSCCLPGLGPCGSLKAPSPRSSASHKSLSLQSRCSISKISEHVVLTSVTTVLP [chain 1 R160A], the response is 0.27.
